B1: ADAMTSL2 (parent)
chain: KKPPEESTCFERPCFKWYTSPWSE
B2: WDR88 (parent)
chain: LLTITKAHSNAISNCCFTFSGHFL

Variants of: B1
Assay: protein stability index of a GFP-peptide fusion (GPS, HEK-293T) (PSI 1-6); higher = more stable
Conditions: c terminus: a fixed tail appended
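Note: lentivirally expressed fusions sorted by FACS into six bins by GFP to DsRed ratio, PSI derived from sequencing read proportions per bin multiplied by bin number.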

Protein stability index, by site and new letter:
K2: V 2.04 | H 1.96 | M 2.72 | D 3.01 | P 2.27 | E 2.79 | I 1.78 | F 2.13 | A 3.16 | Y 2.36 | S 2.15 | W 2.39 | T 2.66 | L 2.73 | G 2.73 | C 2.75 | R 2.61 | N 2.94 | Q 2.29
K1: Q 2.58 | E 3.08 | R 2.88 | A 2.38 | S 2.37 | H 2.33 | Y 1.83 | V 2.29 | G 2.34 | P 2.24 | D 2.67 | F 2.59 | W 1.75 | L 2.35 | I 1.71 | M 2.48 | C 1.89 | N 3.12 | T 2.52
P3: F 2 | K 2.18 | D 2.77 | A 2.83 | G 2.34 | I 1.93 | E 3.04 | C 2.08 | H 1.84

Variants of: B2
Assay: as above
Conditions: c terminus: a fixed tail appended

Protein stability index: each site, then its substitutions
S20: L 2.94 | D 1.98 | V 2.54 | E 2.51 | F 2.6 | C 2.69 | M 2.56 | Q 2.88 | T 2.67 | N 2.94 | W 2.06 | G 2.99
F19: R 2.66 | M 1.69 | E 1.77 | T 2.52 | P 1.88 | I 2.85 | A 2.16 | Q 1.63 | V 2.15 | C 2.77 | S 2.56 | G 2.62 | L 2.82 | D 2.38
L2: I 3.28 | H 2.28 | C 2.18 | G 2.01 | T 2.71 | D 1.4 | M 2.53 | P 2.12 | F 2.44 | S 2.4 | Y 2.1 | V 2.33 | R 2.41 | Q 2.75
C15: F 3.46 | Y 2.88 | P 2.19 | S 2.97 | W 2.31 | R 3.77 | M 2.19 | H 2.78 | D 1.84 | T 3.89 | I 3.44
N10: K 2.12 | I 3.1 | S 3.46 | A 2.64 | F 3.94 | Q 3.31 | C 4.06 | D 3.19
A11: T 3.57 | P 3.08 | G 3.47 | D 2.27 | F 2.93 | V 2.69 | N 3.27 | K 2.66 | W 2.7
H22: G 2.96 | V 2.67 | D 2.31 | N 2.9 | P 2.51 | E 2.89 | C 3.5 | I 3.1 | Q 2.78 | Y 2.93 | W 3.16
L24: H 2.63 | G 2.88 | M 2.98 | S 1.09 | Q 2.64 | D 1.92 | N 3.3 | E 1.77 | I 3.37
F23: S 2.72 | T 1.91 | A 3.02 | Q 1.79 | N 1.99 | D 1.95 | G 2.05 | H 2.91 | K 1.94 | E 2.1 | W 3.34 | P 2.96 | V 1.99
N14: H 3.22 | G 3.72 | E 2.25 | Y 2.53 | K 2.63 | M 2.99 | V 2.52 | D 3.07 | C 3.23 | A 1.44 | L 4.15 | T 2.94
L1: V 2.93 | F 2.52 | C 2.81 | A 3.61 | T 3.09 | W 3.03 | M 1.95 | I 4.01 | H 2.46 | G 1.49 | E 1.76 | R 2.75 | D 1.67 | S 1.76 | N 2.47 | Y 4.04
A7: P 2.04 | I 2.95 | H 3.42 | Y 3.09 | W 4.07 | D 1.86 | V 2.76 | C 2.75 | M 2.8 | R 3.62 | Q 3.22 | G 3.76 | S 2.54 | N 2.1 | L 3.04
T3: D 2.61 | H 2.57 | N 3 | W 2.29 | S 3.22 | C 2.84 | Q 3.3 | I 2.74 | G 1.94
I4: R 2.4 | T 2.8 | N 2.89 | C 2.19 | K 2.5 | H 2.36 | Q 1.8 | F 3.68 | A 2.47 | S 2.5 | P 2.15 | E 1.99 | L 2.9 | M 3.12
S13: F 3.89 | A 2.17 | T 3.02 | E 2.6 | H 3.44 | W 3.57 | G 2.7 | I 3.51 | C 2.35 | K 2.03 | Y 2.48 | R 2.7
G21: S 3.32 | R 1.97 | D 2.75 | Y 2.25 | N 2.42 | M 3.69 | Q 2.92 | E 2.6 | L 2.46
H8: A 3.08 | R 3.29 | F 2.59 | G 3.56 | Q 2.24 | E 2.27 | T 2.38 | C 2.53
K6: R 2.72 | V 2.84 | N 3.18 | S 2.44 | A 2.8 | G 2.44 | M 2.66 | F 3.35 | L 3.35 | P 3.02 | T 2.78 | Q 2.29 | I 2.88 | H 3.03 | Y 1.83 | W 3.12 | C 2.9 | D 1.83
F17: P 2.13 | N 2.58 | M 2.29 | T 2.66 | A 2.38 | V 2.88 | Y 3.26 | G 1.69 | W 1.45 | K 2.43 | L 3.73 | Q 2.58 | I 3.65 | E 2.35
I12: N 2.49 | Y 2.33 | V 3.69 | D 1.96 | H 3.51 | L 3.56 | E 1.77 | A 2.3 | Q 2.57 | T 2.98 | C 3.49
T5: E 2.58 | V 3.03 | L 2.03 | C 2.54 | S 3.33 | Q 1.69 | R 2.72 | D 1.65 | G 2.73 | N 1.67 | P 2.98
S9: D 3.12 | R 1.77 | L 2.95 | W 3.1 | T 2.15 | K 2.83 | H 2.45 | C 1.89 | M 2.31 | N 3.57 | G 2.8
C16: V 1.95 | T 2.9 | S 2.44 | E 2.9 | H 2.61 | Q 2.41 | G 2.75 | N 4.12 | R 1.87 | D 2.33 | P 2.25 | F 3.35 | A 3.4 | I 2.8
T18: E 1.84 | R 2.93 | P 2.54 | F 2.9 | L 2.92 | C 2.47 | M 2.19 | I 2.34 | N 3.85 | A 3.52 | H 2.53 | W 2.86

Source: the supplement of paper PMC10567573
